Reference: publication PMC11695829, “DSIF factor Spt5 coordinates transcription, maturation and exoribonucleolysis of RNA polymerase II transcripts” (Nature Communications, 2025)

Columns and labels:
[1] = target: T1, Full-length Spt4/5 heterodimer (DSIF) (S. pombe, UniProt O13936 1-990; Q9P7K8 1-105); assay: pull-down; Rai1 immobilised on beads and challenged with Xrn2 or Xrn2/Spt4/5; no Pol II; details: both partners purified
T1 construct: Spt5 of S. pombe, full length; Spt4 of S. pombe, full length; Co-expressed heterodimer, used as one preformed complex in all in vitro experiments; Only the Kow5 domain of Spt5 is seen in the cryo-EM map; also called Spt5-Spt4; Spt5
T1 sequence (looked up) 1: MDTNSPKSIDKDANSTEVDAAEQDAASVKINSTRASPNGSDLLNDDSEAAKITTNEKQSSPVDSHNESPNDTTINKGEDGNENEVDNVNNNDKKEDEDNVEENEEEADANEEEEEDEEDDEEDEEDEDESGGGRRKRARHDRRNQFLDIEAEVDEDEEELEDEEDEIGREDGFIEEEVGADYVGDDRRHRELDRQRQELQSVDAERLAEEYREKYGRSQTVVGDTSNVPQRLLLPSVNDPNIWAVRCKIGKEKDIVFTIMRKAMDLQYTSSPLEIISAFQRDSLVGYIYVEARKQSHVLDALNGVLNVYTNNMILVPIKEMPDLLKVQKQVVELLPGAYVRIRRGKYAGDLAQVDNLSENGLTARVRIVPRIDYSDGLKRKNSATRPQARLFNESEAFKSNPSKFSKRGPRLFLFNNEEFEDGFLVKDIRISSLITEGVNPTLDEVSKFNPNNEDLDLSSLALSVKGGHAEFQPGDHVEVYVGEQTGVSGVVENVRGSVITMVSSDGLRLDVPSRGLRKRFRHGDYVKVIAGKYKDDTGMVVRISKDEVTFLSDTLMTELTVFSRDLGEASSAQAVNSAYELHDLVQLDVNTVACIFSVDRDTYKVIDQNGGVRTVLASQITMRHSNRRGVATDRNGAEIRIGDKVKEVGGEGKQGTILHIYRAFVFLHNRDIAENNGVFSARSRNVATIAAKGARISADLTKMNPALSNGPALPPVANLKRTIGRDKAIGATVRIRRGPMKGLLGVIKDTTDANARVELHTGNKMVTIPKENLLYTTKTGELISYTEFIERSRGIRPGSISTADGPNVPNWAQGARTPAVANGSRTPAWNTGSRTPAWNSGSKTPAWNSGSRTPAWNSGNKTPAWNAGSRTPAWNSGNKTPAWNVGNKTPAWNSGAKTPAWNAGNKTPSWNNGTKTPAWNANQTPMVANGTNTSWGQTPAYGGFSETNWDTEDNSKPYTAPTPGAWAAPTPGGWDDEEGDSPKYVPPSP
T1 sequence (looked up) 2: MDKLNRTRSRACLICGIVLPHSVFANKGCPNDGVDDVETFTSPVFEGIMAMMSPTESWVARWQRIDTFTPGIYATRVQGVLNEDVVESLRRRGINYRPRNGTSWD

[2] = target: C-terminally truncated Xrn2 (residues 1–885), WT (S. pombe)

B1: full-length Rai1 Strep-tagged (natural protein, S. pombe, UniProt O13836 1-352, looked up)
chain: MLREFSFYDVPPAHVPPVSEPLEIACYSLSRDRELLLDDSKLSYYYPPPLFSDLNTGFPNRFHPPKSDPDPISIVKDVLMTKGIQMNSSFLTWRGLITKIMCAPLDPRNHWETYLVMDPTSGIIMMEERTRSETSYANQDRMCYWGYKFEAISTLPEIWDACSRDQIEQRDNQDVVPDEQYCSIVKINIGKSKLILAGEVDCIWDKKPCSAKESDVHSDDGTIEEDASNAENPNLHYVELKTSKKYPLENYGMRKKLLKYWAQSFLLGIGRIIIGFRDDNGILIEMKELFTHQIPKMLRPYFKPNDWTPNRLLVVLEHALEWIKQTVKQHPPSTEFTLSYTGGSKLVLRQII
notes: source: Rosetta E. coli, purified (StrepTrap HP, Superdex 200)
binding result [1]: binds

B2: Kow5-sCTR (Spt5 region 720 to 874 aa, N-terminal His-tag) (domain or fragment)
chain: LKRTIGRDKAIGATVRIRRGPMKGLLGVIKDTTDANARVELHTGNKMVTIPKENLLYTTKTGELISYTEFIERSRGIRPGSISTADGPNVPNWAQGARTPAVANGSRTPAWNTGSRTPAWNSGSKTPAWNSGSRTPAWNSGNKTPAWNAGSRTPA
half-life of normalised anisotropy (a proxy for substrate half-life) in the degradation of P-RNA-FAM by Xrn2, fluorescence anisotropy; decrease in the presence of Kow5-sCTR [2]: 3 fold
